According to publication PMC9723947, “Ornate, large, extremophilic (OLE) RNA forms a kink turn necessary for OapC protein recognition and RNA function”:

Columns and labels:
[1] = target: T1, YbxF/OapC WT (Bacillus halodurans C-125) (UniProt Q9Z9M0); test: filter binding; settings: Filter binding: 20 mM Tris-HCl pH 7.5, 150 mM NaCl, 10 mM MgCl2, 1 mM TCEP, ~20 C, 15 min, ~10 pM RNA
T1 sequence: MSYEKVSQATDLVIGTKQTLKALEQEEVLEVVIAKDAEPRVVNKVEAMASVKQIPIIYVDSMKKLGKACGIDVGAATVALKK

[2] = target: T1, YbxF/OapC WT (Bacillus halodurans C-125); test: footprinting (in-line probing); settings: Filter binding: 20 mM Tris-HCl pH 7.5, 150 mM NaCl, 10 mM MgCl2, 1 mM TCEP, ~20 C, 15 min, ~10 pM RNA
[3] = target: T2, YbxF/OapC WT (Bacillus halodurans C-125, UniProt Q9Z9M0 1-82); test: filter binding; Filter binding: 20 mM Tris-HCl pH 7.5, 150 mM NaCl, 10 mM MgCl2, 1 mM TCEP, ~20 C, 15 min, ~10 pM RNA; settings: protein: recombinant, tags: N-terminal His6 + PreScission (3C) site, label: 5' 32P
T2 sequence: T1 sequence

[4] = target: T2, YbxF/OapC WT; test: filter binding; no binding at 1 uM or higher protein; Filter binding: 20 mM Tris-HCl pH 7.5, 150 mM NaCl, 10 mM MgCl2, 1 mM TCEP, ~20 C, 15 min, ~10 pM RNA; settings: protein: recombinant; tags: N-terminal His6 + PreScission (3C) site; label: 5' 32P; hairpin

GGCACAUCGAUGAAGCUCCUUGUGAUGGCUUGAGGCGCCCAGCCUUGGGUCAUUGCUGGGAGAAAAGGUAGUAGGGCGAUCCACAAAGGCAUGUGGGCGAUGACCCUCCUACUGUGGAGGCCUUUUUCUCUGCUGCUUAUGUAUGGACAUAGG [OLE78-230]
binding [1]: binds more weakly

GGCACAUCGAUGAAGCUCCUUGUGAUGGCUUGAGGCGCCCAGCCUUGGGUCAUUGCUGGGAGAAAAGGUAGUAGGGCGAUCCACAAAGGCAUGUGGGCGAUGACCCUCCUACUGUGGAGGCCUUUUUCUCUGCUGCUUAUGUAUGGACAUAGGGCAAGAGCAAAGGGUAUGAACCUGCGAAGGCAAGCUAGGGAGCUUGUCAGCAGCGUAGCC [OLE78-290]
binding [1]: binds
binding [2]: binds

GGCAUUUAAAGAGGAUUACAGUGUGGACUAAGUGGUAAUCCAGUCUGGCGUUUGGUGACAGCGCCAAGUUCAACAUAAAGGGAAACCGCCAGCGCGGCGACGCACUGGUGUUGAAUUGGGAAAUCCUACUGGACCUAAGCCACAGAGUUUACUCUUUAAAUG [OLE449-608]
binding [1]: no binding

GGCCUUGAGUGGAGUAGAGGGGAUUAUGGGUUUUGAAGCAAUCCGCUGUCGGCCAACAGCCAUUGCCUCUCUAGUACCAUAUGAAAUCUGCUCUGCAAAAGAG [OLE293-394]
binding [1]: no binding

B1: OLE83-147 (structured_RNA)
RNA: GGAUCGAUGAAGCUCCUUGUGAUGGCUUGAGGCGCCCAGCCUUGGGUCAUUGCUGGGAGAAAAGGUA
binding result [3]: binds

GGAUCGAUGAAGCUCCCGAAAGGGAGAAAAGGUA (structured_RNA) [OLE k-turn WT]
binding result ([3]; hairpin with k-turn): binds

GGACCGAUGAAGCUCCCGAAAGGGAGAAAAGGUA (structured_RNA) [OLE k-turn U84C]
binding result ([3]; hairpin with k-turn): binds

GGAUAGAUGAAGCUCCCGAAAGGGAGAAAAGGUA (structured_RNA) [OLE k-turn C85A]
binding result [4]: no binding
